From US10907134B2, “Mutated genes for the catalytic protein of oplophorus luciferase and use thereof” (JNC CORPORATION, priority 2013, dated 2021)
Positions count from the first letter of the chain named. Names may count otherwise. One block for each molecule: values may come before it.

Assays:
[1] = Luminescence activity of KAZ mutants (pCold II, E. coli) in supernatant and precipitate of crude enzyme solution; format: biochemical; details: Table 3, pCold II, E. coli BL21, 0.5 μg coelenterazine, 60 seconds; for Relative Luminescence Activity (Imax) Precipitate: 5 μL precipitate; for Relative Luminescence Activity (Imax) Supernatant: 5 μL supernatant
Method: In order to express the KAZ mutants in E. coli, the recombinant plasmid prepared in EXAMPLE 3 was used. The E. coli BL21 strain (Novagen, Madison, Wis.) was used as a host cell. The BL21 strain carrying the recombinant plasmid was incubated in 5 mL of Luria-Bertani medium (hereinafter designated as LB medium) containing ampicillin (50 μg/mL) at 37° C. for 18 hours. This seed culture, 0.1 mL, was inoculated to 10 mL of LB medium and incubated for 3 hours, followed by cooling in an ice-water bath for 1 hour. IPTG was added to the culture medium at a final concentration of 1 mM, followed by incubation at 15° C. for further 20 hours. After completion of the incubation, 1 mL of the cultured medium was harvested by centrifugation at 10,000 rpm for 2 minutes. The thus collected E. coli cells were suspended in 0.5 mL of 30 mM Tris-HCl (pH 7.6)-10 mM EDTA (manufactured by Wako Pure Chemical Industries, Ltd.) (hereinafter designated as TE). The E. coli cells were disrupted by sonication for 3 seconds using a Branson Model 250 Sonifier (Danbury, Conn.) to give a crude enzyme solution. After 0.5 mL of the crude enzyme solution was further centrifuged at 10,000 rpm for 2 minutes to separate the supernatant from the precipitate, the precipitate was suspended in 0.5 mL of TE. Then 20 μL each of the supernatant and precipitate were analyzed by SDS-PAGE to confirm the presence or absence of soluble and insoluble proteins. The results are shown in FIG. 1, wherein M and 1 to 17 denote: M: molecular weight size markers; 1: KAZ; 2 KAZ-A4E; 3: KAZ-Q11R; 4: KAZ-Q18L; 5: KAZ-L27V; 6: KAZ-A33N; 7: KAZ-K43R; 8: KAZ-V44I; 9: KAZ-A54I; 10: KAZ-F68D; 11: KAZ-L72Q; 12: KAZ-M75K; 13: KAZ-I90V; 14: KAZ-P115E; 15: KAZ-Q124K; 16: KAZ-Y138I; 17: KAZ-N166R and 18: dnKAZ.
A luminescence reaction was started by the addition of 5 μL each of the supernatant and precipitate obtained in EXAMPLE 4 to 100 μL of TE containing 0.5 μg of coelenterazine (manufactured by JNC Corp.). The luminescence activity was measured for 60 seconds using a luminometer (manufactured by Atto Corp.: AB2200) and expressed in terms of relative luminescence activity (Imax).
To express the KAZ mutants with two amino acid substitutions and three amino acid substitutions in E. coli using a pCold II vector, the recombinant plasmid constructed in EXAMPLE 13 and pCold-V44I-KAZ, pCold-A54I-KAZ, pCold-Y138I-KAZ prepared in EXAMPLE 3 were used. The supernatant and precipitate of each crude enzyme solution were prepared in the same manner as EXAMPLE 4, using the E. coli BL21 starin (Novagen, Madison, Wis.) as a host cell. The supernatant and precipitate, 20 μL each, were subjected to SDS-PAGE analysis to confirm the presence or absence of soluble proteins and insoluble proteins. In FIG. 3, M and 1 to 9 are as follows. M: molecular weight markers; 1: dnKAZ; 2: KAZ; 3: KAZ-V44I-A54I; 4: KAZ-V44I-Y138I; 5: KAZ-A54I-Y138I; 6: KAZ-V44I-A54I-Y138I; 7: KAZ-V44I; 8: KAZ-A54I; and 9: KAZ-Y138I.
The luminescence activities of 5 μL each of the supernatant and precipitate obtained in EXAMPLE 14 were determined in the same manner as EXAMPLE 5. The luminescence activity was assayed with a luminometer (manufactured by Atto Inc.: AB2200) for 60 seconds, and the maximum intensity of luminescence (Imax) was shown as relative luminescence activity.

[2] = Luminescence activity of ZZ-fused KAZ mutants in crude enzyme solutions; format: biochemical; details: Table 4; ZZ-fused (pCold-ZZ-P-); 1 μL crude enzyme solution, 1 mM DTT; 1 μg coelenterazine
Method: To express the ZZ-fused KAZ mutants in E. coli, the recombinant plasmid prepared in EXAMPLE 6 was used. Crude enzyme solutions were prepared in the same manner as EXAMPLE 4 using the E. coli BL21 strain (Novagen, Madison, Wis.) as a host cell. The resultant crude enzyme solution, 5 μL, was subjected to SDS-PAGE analysis to confirm expression of the proteins (FIG. 2). In FIG. 2, M and 1 to 18 are the same as described in FIG. 1.
DTT was added to the crude enzyme solution obtained in EXAMPLE 7 at a final concentration of 1 mM and the mixture was allowed to stand in an ice water for more than 5 hours. A luminescence reaction was started by adding 1 μL of the crude enzyme solution to 100 μL of TE containing 1 μg of coelenterazine (manufactured by JNC Corp.). The luminescence activity was determined using a luminometer (manufactured by Atto Inc.: AB2200) for 60 seconds, and the maximum intensity of luminescence (Imax) was shown as relative luminescence activity.
To express the ZZ-fused KAZ mutants in E. coli, the recombinant plasmid constructed in EXAMPLE 16 and pCold-ZZ-P-V44I-KAZ, pCold-ZZ-P-A54I-KAZ, pCold-ZZ-P-Y138I-KAZ prepared in EXAMPLE 6 were used. Crude enzyme solutions were prepared in the same manner as EXAMPLE 7, using the E. coli BL21 strain (Novagen, Madison, Wis.) as a host cell. DTT was added to the crude enzyme solutions at a final concentration of 1 mM. The mixtures were allowed to stand over 5 hours on ice, and luminescence activities were then assayed. The luminescence activities were determined by the method described in EXAMPLE 8. Also, 5 μL of the resultant crude enzyme solutions were subjected to SDS-PAGE analysis to confirm protein expression (FIG. 4). In FIG. 4, M and 1 to 9 are as follows. M: molecular weight size markers; 1: ZZ-P-KAZ; 2: ZZ-P-KAZ-V44I; 3: ZZ-P-KAZ-A54I; 4: ZZ-P-KAZ-Y138I; 5: ZZ-P-KAZ-V44I-A54I; 6: ZZ-P-KAZ-V44I-Y138I; 7: ZZ-P-KAZ-A54I-Y138I; 8: ZZ-P-KAZ-V44I-A54I-Y138I; and 9: ZZ-P-dnKAZ.

CHO-K1 cells = experiment: Luminescence activity of KAZ mutants expressed in animal culture cells with signal peptide of Gaussia luciferase for secretion; format: cell-based, Chinese hamster; details: Table 5, pcDNA3-GLsp- vectors, CHO-K1, 48 hours, 0.5 μg coelenterazine; for Relative Luminescence Activity (Imax) (%) Cell Extracts: 5 μL cell extracts; for Relative Luminescence Activity (Imax) (%) Culture Medium: 5 μL culture medium
Method: Chinese hamster ovary cell line CHO-K1 was cultured in Ham's F-12 medium (manufactured by Wako Pure Chemical Industries, Ltd.) supplemented with 10% (v/v) fetal bovine serum (manufactured by Biowest Inc.). The CHO-K1 cells were plated in a 6-well plate in 1×10^5 cells/well/2 mL medium (n=2) and cultured in an incubator at 37° C. in 5% (v/v) CO2. After 24 hours, the purified recombinant plasmid was transfected to CHO-K1 cells using a FuGene HD transfection kit (manufactured by Promega Corp.), which was provided for subsequent experiment. Specifically, 1 μg of the recombinant plasmid pGL4.13 [Luc2/sv40], 0.1 μg of the internal standard vector and 3 μL of FuGene HD were added to 100 μL of the medium, which was allowed to stand at room temperature for 15 minutes. Subsequently, 100 μL of the DNA-FuGene complex was added to the cells in the 6 wells. After incubation for 48 hours, the culture medium was collected. On the other hand, the KAZ mutants expressed in the cells were washed 3 times with 3 mL of 1×PBS, then suspended in 1 mL of 1×PBS and disrupted on ice by ultrasonication, which was used as enzyme solutions of the cell-extracts of KAZ mutants.
A luminescence reaction was started by adding 5 μL of the culture media and cell extracts obtained in EXAMPLE 10 to 100 μL of 30 mM Tris-HCl (pH 7.6)-10 mM EDTA (manufactured by Wako Pure Chemical Industries, Ltd.) containing 0.5 μg of coelenterazine (manufactured by INC Corp.). The luminescence activity was determined using a luminometer (manufactured by Atto Inc.: AB2200) for 60 seconds, and the maximum intensity of luminescence (Imax) was defined as a percentage.
Culture media of the KAZ mutants with two amino acid substitutions and KAZ mutants with three amino acid substitutions and the enzyme solutions of the cell-extracts of KAZ mutants were prepared in the same manner as EXAMPLE 10.
In the resultant enzyme solutions and the enzyme solutions of the cell-extracts of KAZ mutants, luminescence activities were determined in the same manner as EXAMPLE 11.

B3: KAZ-K43R: KAZ with single amino acid substitution K43R (protein)
chain: FTLADFVGDWQQTAGYNQDQVLEQGGLSSLFQALGVSVTPIQRVVLSGENGLKADIHVIIPYEGLSGFQMGLIEMIFKVVYPVDDHHFKIILHYGTLVIDGVTPNMIDYFGRPYPGIAVFDGKQITVTGTLWNGNKIYDERLINPDGSLLFRVTINGVTGWRLCENILA
- Relative Luminescence Activity (Imax) Precipitate [1]: 0.2
- Relative Luminescence Activity (Imax) Supernatant [1]: 1.8
- Relative Luminescence Activity (Imax) [2]: 0.6
- Relative Luminescence Activity (Imax) (%) Cell Extracts (CHO-K1 cells): 0.1%
- Relative Luminescence Activity (Imax) (%) Culture Medium (CHO-K1 cells): less than 0.01%

B6: KAZ-A33N: KAZ with single amino acid substitution A33N (protein)
chain: B3 chain with A33N, R43K
- Relative Luminescence Activity (Imax) Precipitate [1]: 0.4
- Relative Luminescence Activity (Imax) Supernatant [1]: 1.0
- Relative Luminescence Activity (Imax) [2]: 1.0
- Relative Luminescence Activity (Imax) (%) Cell Extracts (CHO-K1 cells): 0.1%
- Relative Luminescence Activity (Imax) (%) Culture Medium (CHO-K1 cells): less than 0.01%

B7: KAZ-F68D: KAZ with single amino acid substitution F68D (protein)
chain: B3 chain with R43K, F68D
- Relative Luminescence Activity (Imax) Precipitate [1]: 0.2
- Relative Luminescence Activity (Imax) Supernatant [1]: 5.4
- Relative Luminescence Activity (Imax) [2]: 2.7
- Relative Luminescence Activity (Imax) (%) Cell Extracts (CHO-K1 cells): 0.3%
- Relative Luminescence Activity (Imax) (%) Culture Medium (CHO-K1 cells): less than 0.01%

B8: KAZ-L27V: KAZ with single amino acid substitution L27V (protein)
chain: B3 chain with L27V, R43K
- Relative Luminescence Activity (Imax) Precipitate [1]: 0.1
- Relative Luminescence Activity (Imax) Supernatant [1]: 0.1
- Relative Luminescence Activity (Imax) [2]: 0.1
- Relative Luminescence Activity (Imax) (%) Cell Extracts (CHO-K1 cells): 0.02%
- Relative Luminescence Activity (Imax) (%) Culture Medium (CHO-K1 cells): less than 0.01%

Now from value to molecule, other results behind:

- Relative Luminescence Activity (Imax) [2]: 1.8
B1: KAZ-Q11R: KAZ with single amino acid substitution Q11R (protein)
chain: B3 chain with Q11R, R43K
- Relative Luminescence Activity (Imax) Precipitate [1]: 0.3
- Relative Luminescence Activity (Imax) Supernatant [1]: 2.0
- Relative Luminescence Activity (Imax) (%) Cell Extracts (CHO-K1 cells): 0.1%
- Relative Luminescence Activity (Imax) (%) Culture Medium (CHO-K1 cells): less than 0.01%

- Relative Luminescence Activity (Imax) [2]: 2.5
B2: KAZ-L72Q: KAZ with single amino acid substitution L72Q (protein)
chain: B3 chain with R43K, L72Q
- Relative Luminescence Activity (Imax) Precipitate [1]: 0.6
- Relative Luminescence Activity (Imax) Supernatant [1]: 7.2
- Relative Luminescence Activity (Imax) (%) Cell Extracts (CHO-K1 cells): 0.4%
- Relative Luminescence Activity (Imax) (%) Culture Medium (CHO-K1 cells): less than 0.01%

- Relative Luminescence Activity (Imax) [2]: 1.3
B4: KAZ-M75K: KAZ with single amino acid substitution M75K (protein)
chain: B3 chain with R43K, M75K
- Relative Luminescence Activity (Imax) Precipitate [1]: 0.4
- Relative Luminescence Activity (Imax) Supernatant [1]: 4.6
- Relative Luminescence Activity (Imax) (%) Cell Extracts (CHO-K1 cells): 0.2%
- Relative Luminescence Activity (Imax) (%) Culture Medium (CHO-K1 cells): less than 0.01%

- Relative Luminescence Activity (Imax) [2]: 0.3
B5: KAZ-Q18L: KAZ with glutamine at position 18 substituted by leucine (protein, listed as Oplophorus gracilirostris)
chain: B3 chain with Q18L, R43K
- Relative Luminescence Activity (Imax) Precipitate [1]: 0.2
- Relative Luminescence Activity (Imax) Supernatant [1]: 1.0
- Relative Luminescence Activity (Imax) (%) Cell Extracts (CHO-K1 cells): 0.02%
- Relative Luminescence Activity (Imax) (%) Culture Medium (CHO-K1 cells): less than 0.01%
